Source: patent publication US9101618B2, “Method for treating and/or preventing neurodegenerative disease by adiponectin receptor agonist” (TOKYO METROPOLITAN INSTITUTE OF MEDICAL SCIENCE, priority 2011, dated 2015)

Columns and labels:
Assay type in all cases: cell-based, rat
tau = assay: Adiponectin addition (3): tau phosphorylation (western blotting); settings: 1 μg/mL, 0, 1 and 2 hour(s), B103 neuroblastoma cells (αS)
Protocol: (§1) The B103 neuroblastoma cells (α (alpha)S) and the B103 neuroblastoma cells (vector) were inoculated on a 5 cm dish and cultured to a state of about 80-90% confluence. Later, the aforementioned cells were washed with PBS, and then cultured in a serum-free medium for four hours. After washing with PBS, the cells were then cultured in a test medium (adiponectin-added group) prepared by adding recombinant human adiponectin (1_μg/mL, trimer, PROSPEC) to a serum-free medium. As a control, there was used a control medium (adiponectin non-added group) prepared by adding thereto PBS instead of recombinant human adiponectin. A culture time was 0, 10 and 30 min when evaluating signal transduction, 0, 1 and 2 hour(s) when evaluating tau phosphorylation. The cells collected were lysed with a cell lysis solution (1% TritonX-100, 1% Nonidet P-40, 50 mM HEPES, 150 mM NaCl, 10% glycerol, 1.5 mM MgCl2, 1 mM EGTA, 100_mM sodium fluoride, a protease inhibitor (NACALAI TESQUE, INC.)). Supernatants were collected after performing centrifugation at 100,000×g for 30 min, and were used as surfactant soluble fractions when performing western blotting. Here, western blotting was performed in accordance with the procedures described in example 1. […]

B103 neuroblastoma cells = assay: Cytotoxicity due to the addition of adiponectin; settings: 1 μg/mL
Protocol: The B103 neuroblastoma cells (α (alpha)S) and the B103 neuroblastoma cells (vector) were prepared and cultured in accordance with the procedures described in example 3. The B103 neuroblastoma cells (α (alpha)S) and the B103 neuroblastoma cells (vector) were inoculated on the 6-well plate and cultured to a state of about 80-90% confluence. After washing with PBS, the aforementioned cells were further cultured for 24 hours in a test medium prepared by adding recombinant human adiponectin (1 μg/mL, trimer, PROSPEC) to a serum-free medium. As a control, there was used a control medium prepared by adding thereto PBS instead of recombinant human adiponectin. After culturing, there were prepared the TBS soluble fraction, the SDS soluble fraction and the formic acid soluble fraction in accordance with the procedures described in example 1. Further, western blotting was performed in accordance with the procedures described in example 1. In order to evaluate α (alpha)-synuclein aggregation, an anti-α (alpha)-synuclein mouse monoclonal antibody (syn-1, Nippon Becton Dickinson Company, Ltd) was used as a primary antibody when performing western blotting, the anti-α (alpha)-synuclein mouse monoclonal antibody being diluted appropriately before use. Additionally, an HRP labeled anti-mouse IgG antibody (DAKO) was used as a secondary antibody, the HRP labeled anti-mouse IgG antibody being diluted appropriately before use.
The B103 neuroblastoma cells (α (alpha)S) and the B103 neuroblastoma cells (vector) were inoculated on a 5 cm dish and cultured to a state of about 80-90% confluence. Later, the aforementioned cells were washed with PBS, and then cultured in a serum-free medium for four hours. After washing with PBS, the cells were then cultured in a test medium (adiponectin-added group) prepared by adding recombinant human adiponectin (1_μg/mL, trimer, PROSPEC) to a serum-free medium. As a control, there was used a control medium (adiponectin non-added group) prepared by adding thereto PBS instead of recombinant human adiponectin. […]

[1] = system: B103 neuroblastoma cells (α (alpha)S); assay: Immunoprecipitation with anti-α-synuclein antibody, detection of phosphorylated tau (Ser 202); settings: 1 μg/mL, 24 hours, NP40 soluble fraction
Protocol: Immunoprecipitation was performed by standard procedures known to those skilled in the art. Briefly, the B103 neuroblastoma cells (α (alpha)S) were inoculated on a 10 cm dish, and were cultured to a state of about 80-90% confluence. The cells were then washed with PBS, followed by being cultured in a test medium (adiponectin-added group) prepared by adding recombinant human adiponectin (1 μg/mL, trimer, PROSPEC) to a serum-free medium. As a control, there was used a control medium (adiponectin non-added group) prepared by adding thereto PBS instead of recombinant human adiponectin. After being cultured for 24 hours, the cells were then lysed with a NP40 lysis solution (1% IGEPAL CA630 (Sigma-Aldrich Japan Inc), 150 mM NaCl, 50 mM Tris-HCl (pH 8.0), a protease inhibitor (NACALAI TESQUE, INC.)). Supernatants were collected after performing centrifugation at 100,000×g for 30 min. The supernatants thus collected were used as NP40 soluble fractions when performing immunoprecipitation. Immunoprecipitation was performed using Immunoprecipitation Starter Pack (GE Healthcare Japan Corporation) in accordance with a manual provided by the manufacturer and vender. […]

p38 MAPK = assay: Adiponectin addition (2): signal transduction, phospho-p38 MAPK western blotting; settings: 1 μg/mL, 0, 10 and 30 min
Protocol: as §1

B1: adiponectin: recombinant human adiponectin (trimer, PROSPEC) added to serum-free medium at 1 μg/mL (protein, UniProt Q15848 19-244, looked up)
Adiponectin: ETTTQGPGVLLPLPKGACTGWMAGIPGHPGHNGAPGRDGRDGTPGEKGEKGDPGLIGPKGDIGETGVPGAEGPRGFPGIQGRKGEPGEGAYVYRSAFSVGLETYVTIPNMPIRFTKIFYNQQNHYDGSTGKFHCNIPGLYYFAYHITVYMKDVKVSLFKKDKAMLFTYDQYQENNVDQASGSVLLHLEVGDQVWLQVYGEGERNGLYADNDNDSTFTGFLLYHDTN
amount of phosphorylated tau (Ser 202, Ser 396) (tau): decreased
cytotoxicity (B103 neuroblastoma cells; 24 hours (α-synuclein aggregation experiment)): not particularly observed
cytotoxicity (B103 neuroblastoma cells; signal transduction experiment): not particularly observed
cytotoxicity (B103 neuroblastoma cells; tau phosphorylation experiment): not particularly observed
coprecipitation of phosphorylated tau with α-synuclein [1]: did not coprecipitate
phosphorylation of p38 MAPK (p38 MAPK): promoted
